Measurements from patent publication US20180155698.

Columns and labels:
[1] = molecular target: DSA polymerase K276C,Q451C (Bacillus stearothermophilus) (UniProt Q04957); experiment: BLI; conditions: first round 1.75 vs 0.9; second round after incorporation 1.60; 300 nM, 100 mM KCl, 320 mM K-glutamate, 2 mM SrCl2; lower binary and ternary signal than CBT in …; scale: ratio correct to highest incorrect signal
[2] = molecular target: TEE polymerase K276C,Q307E,Q451C (Bacillus stearothermophilus) (UniProt Q04957); experiment: BLI; conditions: first round 1.10 vs 0.4; second round after incorporation 4.83; very low binary signal; 900 nM, 100 mM KCl, 320 mM K-glutamate, 2 mM SrCl2; scale: ratio correct to highest incorrect signal

Substance: primed template, next correct nucleotides AT (Examples 3 and 5)
- binding signal [1]: 1.95
- binding signal [2]: 2.75
